Assay results reported in US20040259770A1, “Method for determining leukocyte activation” (Rush University Medical Center, priority 2003, published 2004).
Like-named read-outs stand apart in the source and are kept apart here.

B1: immobilized lactoferrin: human milk lactoferrin (Sigma) coated on tissue culture wells overnight at 4° C (protein, UniProt P02788 20-710, looked up)
Lactotransferrin: GRRRSVQWCAVSQPEATKCFQWQRNMRKVRGPPVSCIKRDSPIQCIQAIAENRADAVTLDGGFIYEAGLAPYKLRPVAAEVYGTERQPRTHYYAVAVVKKGGSFQLNELQGLKSCHTGLRRTAGWNVPIGTLRPFLNWTGPPEPIEAAVARFFSASCVPGADKGQFPNLCRLCAGTGENKCAFSSQEPYFSYSGAFKCLRDGAGDVAFIRESTVFEDLSDEAERDEYELLCPDNTRKPVDKFKDCHLARVPSHAVVARSVNGKEDAIWNLLRQAQEKFGKDKSPKFQLFGSPSGQKDLLFKDSAIGFSRVPPRIDSGLYLGSGYFTAIQNLRKSEEEVAARRARVVWCAVGEQELRKCNQWSGLSEGSVTCSSASTTEDCIALVLKGEADAMSLDGGYVYTAGKCGLVPVLAENYKSQQSSDPDPNCVDRPVEGYLAVAVVRRSDTSLTWNSVKGKKSCHTAVDRTAGWNIPMGLLFNQTGSCKFDEYFSQSCAPGSDPRSNLCALCIGDEQGENKCVPNSNERYYGYTGAFRCLAENAGDVAFVKDVTVLQNTDGNNNEAWAKDLKLADFALLCLDGKRKPVTEARSCHLAMAPNHAVVSRMDKVERLKQVLLHQQAKFGRNGSDCPDKFCLFQSETKNLLFNDNTECLARLHGKTTYEKYLGPQYVAGITNLKKCSTSPLLEACEFLRK
modifications: immobilized
notes: human milk lactoferrin (Sigma) coated on tissue culture wells overnight at 4° C
B2: lactoferrin: 78-80 kilodalton multifunctional glycoprotein of external secretions and neutrophil secondary granules (protein, UniProt P02788 20-710, looked up)
Lactotransferrin: B1 Lactotransferrin

Assays:
eosinophils [1] = test: Eosinophil superoxide production (cytochrome c reduction) in protein-coated tissue culture wells; assay type: cell-based, human
Experimental: Neutrophils were isolated from venous blood of healthy adult volunteers by density gradient centrifugation through lymphocyte separation medium (BioWhittaker; Walkersville, Md.) as described previously (Haskell M. D., et al., Blood 86:4627-4637 (1995)) with one modification. Isotonicity was restored following the brief hypotonic lysis steps by the addition of 2× concentrated Hank's Balanced Salt Solution (HBSS) (Gibco; Grand Island, N.Y.) (without Ca^2+ and Mg^2+) containing 5 mM HEPES, pH 7.4. The cells were suspended in HEPES (10 mM)-buffered HBSS (with Ca^2+ and Mg^2+), pH 7.4, containing 1 milligram per milliliter of human serum albumin (HSA) (Sigma Chemical Co.) (HEPES-HBSS-HSA buffer). Neutrophil purity was routinely greater than 95 percent, with eosinophils representing the remainder of the cells. Eosinophils were isolated from the neutrophil preparations by negative selection (Hansel T. T., et al., J. Immunol. Meth. 145:105-10 (1991)) using anti-CD16 immunomagnetic beads as described by the manufacturer (Miltenyi Biotec, Inc., Auburn, Calif.). The eosinophils were suspended in HEPES-HBSS-HSA buffer. Eosinophil purity was routinely greater than 95 percent as determined by counting Wright-stained cytospin preparations. In some assays, an aliquot of the neutrophil preparation was held on ice for later use.
Superoxide production was measured essentially as described elsewhere (Motegi, Y., and H. Kita, J. Immunol. 161:4340 (1998)). Briefly, wells in a 96-well (flat bottom) tissue culture plate (Corning, Inc.; Corning, N.Y.) were coated with human milk lactoferrin (Sigma Chemical Co.) or human secretory IgA (ICN Biomedical; Aurora, Ohio) by incubation with 50 microliters of the indicated concentrations of the proteins in phosphate buffered saline (PBS) overnight at 4° C. Non-specific protein binding sites were blocked by subsequent incubation with 100 microliters of 25 milligrams per milliliter of HSA in PBS for 2 hours at 37° C., and the tissue culture wells were washed twice with PBS before use. Aliquots (5×10^4 cells) of eosinophils or neutrophils were added to the wells and were incubated in HEPES-HBSS—HSA buffer containing 50 micromolar cytochrome c (Sigma Chemical Co.) for 120 minutes at 37° C. in a Ceres UV900HDi microplate reader (Bio-Tek Instruments, Inc., Winooski, Vt.). Total incubation volume was 0.2 milliliters. Absorbance at 550 nanometers was recorded at 15-minute intervals, and superoxide production was calculated as described previously (Motegi, Y., and H. Kita, J. Immunol. 161:4340 (1998)). Results are expressed as nanomoles superoxide per 10^5 cells after subtraction of spontaneous production, which was measured in tissue culture wells coated only with HSA. GM-CSF (R & D Systems; Minneapolis, Minn.), porcine heparin (Sigma Chemical Co.), or chondroitin sulfate C (Sigma Chemical Co.) was added to the incubation mixtures in some assays as indicated.

eosinophils [2] = test: Eosinophil leukotriene C4 production by ELISA; assay type: cell-based, human; details: 1 hour
Experimental: Eosinophils (2×10^5) were incubated in the presence and absence of 100 pg/ml GM-CSF in RPMI 1640 containing 10 mM HEPES for 1 hr at 37° C. in tissue culture wells precoated with lactoferrin or secretory IgA as above with one modification. The tissue culture wells were not treated with HSA and HSA was not added to the incubation buffer to minimize loss of leukotriene C4. Total incubation volume was 0.2 ml. Reactions were stopped by centrifugation at 300 g for 5 min at 4° C., and supernatants were stored at −20° C. until measurement of leukotriene C4 content by a leukotriene C4/D4/E4 ELISA (Amersham Pharmacia Biotech; Piscataway, N.J.). Spontaneous leukotriene C4 production was determined with eosinophils incubated in untreated tissue culture wells.

neutrophils = test: Neutrophil superoxide production (cytochrome c reduction) in protein-coated tissue culture wells; assay type: cell-based, human
Experimental: Neutrophils were isolated from venous blood of healthy adult volunteers by density gradient centrifugation through lymphocyte separation medium (BioWhittaker; Walkersville, Md.) as described previously (Haskell M. D., et al., Blood 86:4627-4637 (1995)) with one modification. Isotonicity was restored following the brief hypotonic lysis steps by the addition of 2× concentrated Hank's Balanced Salt Solution (HBSS) (Gibco; Grand Island, N.Y.) (without Ca^2+ and Mg^2+) containing 5 mM HEPES, pH 7.4. The cells were suspended in HEPES (10 mM)-buffered HBSS (with Ca^2+ and Mg^2+), pH 7.4, containing 1 milligram per milliliter of human serum albumin (HSA) (Sigma Chemical Co.) (HEPES-HBSS-HSA buffer). […] Eosinophil purity was routinely greater than 95 percent as determined by counting Wright-stained cytospin preparations. […]
Superoxide production was measured essentially as described elsewhere (Motegi, Y., and H. Kita, J. Immunol. 161:4340 (1998)). […] Aliquots (5×10^4 cells) of eosinophils or neutrophils were added to the wells and were incubated in HEPES-HBSS—HSA buffer containing 50 micromolar cytochrome c (Sigma Chemical Co.) for 120 minutes at 37° C. in a Ceres UV900HDi microplate reader (Bio-Tek Instruments, Inc., Winooski, Vt.). […] Results are expressed as nanomoles superoxide per 10^5 cells after subtraction of spontaneous production, which was measured in tissue culture wells coated only with HSA. […]

eosinophils [3] = test: Eosinophil degranulation: EDN release by ELISA; assay type: cell-based, human; details: 3 to 100 micrograms per milliliter immobilized, 4 hours at 37° C, maximum at 100 micrograms per milliliter
Experimental: Eosinophils (2×10^5) were incubated in the presence and absence of 100 picograms per milliliter of GM-CSF in RPMI 1640 containing 1 milligram per milliliter of HSA for 4 hours at 37° C. in 5 percent CO2 in tissue culture wells precoated with lactoferrin or secretory IgA as above. Total incubation volume was 0.2 milliliters. Reactions were stopped by centrifugation at 300 g for 5 minutes at 4° C., and supernatants were stored at −20° C. until measurement of eosinophil-derived neurotoxin (EDN) content by specific ELISA (MBL International, Watertown, Mass.). Spontaneous release of EDN was determined with cells incubated in HSA-coated wells.

eosinophils [4] = test: Flow cytometric analysis of binding of lactoferrin by eosinophils; design: species or system human
Experimental: Eosinophils (10^6 cells) were incubated with or without the indicated concentrations of lactoferrin in 100 microliters of HEPES-HBSS-HSA buffer for 90 minutes at 4° C. The cells were collected by centrifugation at 300 g for 5 minutes at 4° C., and then incubated with 1.5 micrograms FITC-conjugated polyclonal anti-lactoferrin (Sigma Chemical Co.) or FITC-conjugated rabbit IgG (Sigma Chemical Co.) in 25 microliters PBS (pH 7.2) containing 0.1 percent gelatin and 0.1 percent azide (PBS-gel-azide) for 30 minutes on ice. The cells were washed twice in ice-cold PBS-gel-azide and were suspended in PBS-gel-azide buffer containing 1 percent formaldehyde for analysis by flow cytometry. Fluorescence intensity of 10,000 cells in each sample was measured using a FACScan flow cytometer (Becton-Dickinson; San Jose, Calif.).

[5] = system: lactoferrin receptor on neutrophils; details: Boxer et al. 1982, cited from earlier work

Molecule | stimulation of eosinophil superoxide production (in words) (eosinophils [1]; 1 to 100 micrograms per milliliter of the protein, 2 hours at 37° C) | concentration giving maximum (peak) superoxide production (eosinophils [1]; 2-hour time point, absence of GM-CSF) | superoxide production with immobilized lactoferrin and immobilized secretory IgA in combination (eosinophils [1]; 3 or 10 micrograms per milliliter lactoferrin plus 1 or 3 micrograms per milliliter secretory IgA, n=4) | maximum response of superoxide production (eosinophils [1]; 30 micrograms per milliliter immobilized, 2-hour time point, five assays, corrected for spontaneous production) | eosinophil superoxide production (eosinophils [1]; 30 micrograms per milliliter immobilized, Example 3 assays (same donors as neutrophils), spontaneous value subtracted) | stimulation of eosinophil superoxide production (in words) (eosinophils [1]; immobilized at concentrations less than 3 micrograms per milliliter) | potency relative to immobilized secretory IgA (eosinophils [1]; superoxide production, same assays) | leukotriene C4 production (in words) (eosinophils [2]; 3 to 100 micrograms per milliliter immobilized, no GM-CSF) | leukotriene C4 production (eosinophils [2]; 10 micrograms per milliliter immobilized lactoferrin alone) | leukotriene C4 production (eosinophils [2]; 10 micrograms per milliliter immobilized lactoferrin together with 100 picograms per milliliter GM-CSF) | stimulation of neutrophil superoxide production (in words) (neutrophils; 1 to 100 micrograms per milliliter immobilized, up to 2 hours) | neutrophil superoxide production as percent of eosinophil superoxide production stimulated by 30 micrograms per milliliter immobilized lactoferrin (neutrophils; 100 microgram per milliliter immobilized lactoferrin) | net release of EDN (eosinophils [3]) | fluorescence intensity with FITC-conjugated anti-lactoferrin antibody (eosinophils [4]; 30 micrograms per milliliter soluble lactoferrin, 90 minutes at 4° C) | fluorescence intensity with FITC-conjugated anti-lactoferrin antibody (eosinophils [4]; 100 micrograms per milliliter lactoferrin) | lactoferrin concentration at which binding by eosinophils is saturated (eosinophils [4]; flow cytometry analysis, approximately 0.4 micromolar) | Kd ([5]; read-out: dissociation constant of lactoferrin receptor described for neutrophils) | Kd ([5]; read-out: dissociation constant of lactoferrin receptor described on neutrophils)
B1 | stimulated marked superoxide production | 30 micrograms per milliliter | additive levels of superoxide production | approximately 5 nanomoles superoxide per 10^5 eosinophils | 5.5±1.4 nanomoles per 10^5 eosinophils | did not appear to stimulate superoxide production | approximately one-third | stimulated only low levels of leukotriene C4 | 115 picograms leukotriene C4 per 10^6 eosinophils | 955 picograms leukotriene C4 per 10^6 eosinophils | did not produce significant superoxide production | 25% | ≤ 1000 nanograms of EDN per 10^6 eosinophils | – | – | – | – | –
B2 | – | – | – | – | – | – | – | – | – | – | – | – | – | marked increase in the fluorescence intensity | did not produce any further increase in the level of fluorescence intensity | 30 micrograms per milliliter | ~200 nM | ~200 nM
